The target in one assay is T1, Scc3 (budding yeast, UniProt P40541 1-1150).
T1 construct: Scc3, budding yeast cohesin subunit; genomic DNA encoding Scc3; also called HEAT repeat subunit Scc3; source: co-purified (IgG agarose, heparin, Superose 6)
T1 sequence (looked up): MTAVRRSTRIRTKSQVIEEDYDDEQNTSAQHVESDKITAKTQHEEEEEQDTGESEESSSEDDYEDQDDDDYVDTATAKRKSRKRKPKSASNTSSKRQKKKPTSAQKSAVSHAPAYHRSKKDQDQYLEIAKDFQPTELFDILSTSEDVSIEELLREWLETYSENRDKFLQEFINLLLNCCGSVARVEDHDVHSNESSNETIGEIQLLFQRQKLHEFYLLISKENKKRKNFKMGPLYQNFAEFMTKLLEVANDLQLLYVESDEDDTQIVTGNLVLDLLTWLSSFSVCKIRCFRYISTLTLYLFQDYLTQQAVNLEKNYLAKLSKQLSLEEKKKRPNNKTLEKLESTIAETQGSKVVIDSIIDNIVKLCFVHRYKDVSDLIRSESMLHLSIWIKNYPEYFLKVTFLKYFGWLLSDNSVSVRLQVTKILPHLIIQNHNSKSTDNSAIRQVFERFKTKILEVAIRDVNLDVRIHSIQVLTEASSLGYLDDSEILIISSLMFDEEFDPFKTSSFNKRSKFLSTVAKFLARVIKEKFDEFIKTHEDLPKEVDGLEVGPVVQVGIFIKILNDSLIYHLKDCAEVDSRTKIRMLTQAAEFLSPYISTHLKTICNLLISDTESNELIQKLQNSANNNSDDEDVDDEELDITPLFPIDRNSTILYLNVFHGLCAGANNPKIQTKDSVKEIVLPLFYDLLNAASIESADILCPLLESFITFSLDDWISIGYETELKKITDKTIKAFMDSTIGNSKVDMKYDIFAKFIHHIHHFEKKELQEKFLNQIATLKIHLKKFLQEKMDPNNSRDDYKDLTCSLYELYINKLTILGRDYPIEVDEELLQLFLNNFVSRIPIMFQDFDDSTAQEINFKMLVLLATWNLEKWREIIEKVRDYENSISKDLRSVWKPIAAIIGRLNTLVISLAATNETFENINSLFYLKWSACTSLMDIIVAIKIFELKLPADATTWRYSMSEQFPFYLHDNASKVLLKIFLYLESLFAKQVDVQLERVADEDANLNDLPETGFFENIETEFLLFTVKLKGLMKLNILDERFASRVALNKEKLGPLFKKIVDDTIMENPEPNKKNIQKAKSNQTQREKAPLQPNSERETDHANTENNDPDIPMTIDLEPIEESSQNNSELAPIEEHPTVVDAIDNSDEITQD
Description: SEC; purified cohesin tetramer, 150 nM in cohesin loading buffer (35 mM Tris-HCl pH 7.0, 20 mM NaCl, 0.5 mM MgCl2, 0.5 mM ATP), run directly or after 120 min at 29°C on Superose 6 Increase 10/300 GL in R buffer (150 mM NaCl); UV absorbance. The note with it: both partners purified.

The next assay addresses T2, Smc3 (budding yeast, UniProt P47037 1-1230).
T2 construct: Smc3, budding yeast cohesin subunit; Smc3-encoding genomic DNA; The expression strain is eco1 deleted; also called cohesin subunit Smc3; source: co-purified (IgG agarose, heparin, Superose 6)
T2 sequence (looked up): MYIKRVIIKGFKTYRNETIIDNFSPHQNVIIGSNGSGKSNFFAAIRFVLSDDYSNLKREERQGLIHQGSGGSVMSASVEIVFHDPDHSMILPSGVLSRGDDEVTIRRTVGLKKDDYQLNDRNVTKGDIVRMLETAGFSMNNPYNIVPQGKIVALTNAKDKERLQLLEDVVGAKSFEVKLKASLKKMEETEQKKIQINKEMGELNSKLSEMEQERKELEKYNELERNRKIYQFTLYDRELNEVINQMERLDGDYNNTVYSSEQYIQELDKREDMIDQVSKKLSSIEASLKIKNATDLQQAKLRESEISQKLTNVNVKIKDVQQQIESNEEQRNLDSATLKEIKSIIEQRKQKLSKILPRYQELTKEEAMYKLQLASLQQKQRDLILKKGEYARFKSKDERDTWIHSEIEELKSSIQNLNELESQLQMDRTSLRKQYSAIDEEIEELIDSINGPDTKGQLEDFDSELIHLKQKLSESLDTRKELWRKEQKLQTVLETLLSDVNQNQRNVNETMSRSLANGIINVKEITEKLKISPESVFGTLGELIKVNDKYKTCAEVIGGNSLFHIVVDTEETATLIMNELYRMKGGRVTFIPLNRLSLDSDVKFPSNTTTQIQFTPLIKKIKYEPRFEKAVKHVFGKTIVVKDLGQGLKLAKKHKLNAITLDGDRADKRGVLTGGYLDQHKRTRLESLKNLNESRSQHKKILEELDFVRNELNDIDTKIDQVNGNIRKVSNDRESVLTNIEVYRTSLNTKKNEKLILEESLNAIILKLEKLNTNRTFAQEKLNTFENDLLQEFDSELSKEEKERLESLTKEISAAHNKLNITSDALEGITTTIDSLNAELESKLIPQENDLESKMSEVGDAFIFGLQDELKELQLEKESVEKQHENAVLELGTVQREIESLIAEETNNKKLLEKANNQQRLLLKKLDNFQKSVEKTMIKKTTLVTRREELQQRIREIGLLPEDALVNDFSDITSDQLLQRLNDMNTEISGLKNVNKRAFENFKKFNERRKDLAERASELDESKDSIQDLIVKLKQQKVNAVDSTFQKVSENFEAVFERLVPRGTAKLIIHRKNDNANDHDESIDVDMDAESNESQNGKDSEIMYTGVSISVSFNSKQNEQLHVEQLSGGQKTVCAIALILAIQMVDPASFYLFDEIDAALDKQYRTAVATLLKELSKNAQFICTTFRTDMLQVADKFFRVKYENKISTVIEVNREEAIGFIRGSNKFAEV
The description is as above. The note with it: both partners purified.

B1: Scc1 (natural protein, budding yeast, UniProt Q12158 1-566, looked up)
chain: MVTENPQRLTVLRLATNKGPLAQIWLASNMSNIPRGSVIQTHIAESAKEIAKASGCDDESGDNEYITLRTSGELLQGIVRVYSKQATFLLTDIKDTLTKISMLFKTSQKMTSTVNRLNTVTRVHQLMLEDAVTEREVLVTPGLEFLDDTTIPVGLMAQENSMERKVQGAAPWDTSLEVGRRFSPDEDFEHNNLSSMNLDFDIEEGPITSKSWEEGTRQSSRNFDTHENYIQDDDFPLDDAGTIGWDLGITEKNDQNNDDDDNSVEQGRRLGESIMSEEPTDFGFDLDIEKEAPAGNIDTITDAMTESQPKQTGTRRNSKLLNTKSIQIDEETENSESIASSNTYKEERSNNLLTPQPTNFTTKRLWSEITESMSYLPDPILKNFLSYESLKKRKIHNGREGSIEEPELNVSLNLTDDVISNAGTNDNSFNELTDNMSDFVPIDAGLNEAPFPEENIIDAKTRNEQTTIQTEKVRPTPGEVASKAIVQMAKILRKELSEEKEVIFTDVLKSQANTEPENITKREASRGFFDILSLATEGCIGLSQTEAFGNIKIDAKPALFERFINA
notes: Scc1, budding yeast cohesin kleisin subunit; genomic DNA encoding Scc1; also called kleisin subunit Scc1; source: co-purified (IgG agarose, heparin, Superose 6); not shown: two tandem protein A tags, C-terminal, kept
As to B1, the binding result with Scc3 is “binds”.

B2: Smc1 (natural protein, budding yeast, UniProt P32908 1-1225, looked up)
chain: MGRLVGLELSNFKSYRGVTKVGFGESNFTSIIGPNGSGKSNMMDAISFVLGVRSNHLRSNILKDLIYRGVLNDENSDDYDNEGAASSNPQSAYVKAFYQKGNKLVELMRIISRNGDTSYKIDGKTVSYKDYSIFLENENILIKAKNFLVFQGDVEQIAAQSPVELSRMFEEVSGSIQYKKEYEELKEKIEKLSKSATESIKNRRRIHGELKTYKEGINKNEEYRKQLDKKNELQKFQALWQLYHLEQQKEELTDKLSALNSEISSLKGKINNEMKSLQRSKSSFVKESAVISKQKSKLDYIFKDKEKLVSDLRLIKVPQQAAGKRISHIEKRIESLQKDLQRQKTYVERFETQLKVVTRSKEAFEEEIKQSARNYDKFKLNENDLKTYNCLHEKYLTEGGSILEEKIAVLNNDKREIQEELERFNKRADISKRRITEELSITGEKLDTQLNDLRVSLNEKNALHTERLHELKKLQSDIESANNQEYDLNFKLRETLVKIDDLSANQRETMKERKLRENIAMLKRFFPGVKGLVHDLCHPKKEKYGLAVSTILGKNFDSVIVENLTVAQECIAFLKKQRAGTASFIPLDTIETELPTLSLPDSQDYILSINAIDYEPEYEKAMQYVCGDSIICNTLNIAKDLKWKKGIRGKLVTIEGALIHKAGLMTGGISGDANNRWDKEEYQSLMSLKDKLLIQIDELSNGQRSNSIRAREVENSVSLLNSDIANLRTQVTQQKRSLDENRLEIKYHNDLIEKEIQPKITELKKKLDDLENTKDNLVKEKEALQNNIFKEFTSKIGFTIKEYENHSGELMRQQSKELQQLQKQILTVENKLQFETDRLSTTQRRYEKAQKDLENAQVEMKSLEEQEYAIEMKIGSIESKLEEHKNHLDELQKKFVTKQSELNSSEDILEDMNSNLQVLKRERDGIKEDIEKFDLERVTALKNCKISNINIPISSETTIDDLPISSTDNEAITISNSIDINYKGLPKKYKENNTDSARKELEQKIHEVEEILNELQPNARALERYDEAEGRFEVINNETEQLKAEEKKILNQFLKIKKKRKELFEKTFDYVSDHLDAIYRELTKNPNSNVELAGGNASLTIEDEDEPFNAGIKYHATPPLKRFKDMEYLSGGEKTVAALALLFAINSYQPSPFFVLDEVDAALDITNVQRIAAYIRRHRNPDLQFIVISLKNTMFEKSDALVGVYRQQQENSSKIITLDLSNYAE
notes: Smc1, budding yeast cohesin subunit; PCR amplified Smc1-encoding genomic DNA; also called cohesin subunit Smc1; source: co-purified (IgG agarose, heparin, Superose 6)
On to B2, for which the binding result with Smc3 is recorded as “binds”.

The record behind these values is publication PMC6205631, “Topological in vitro loading of the budding yeast cohesin ring onto DNA” (Life Science Alliance, 2018).
